Substitutions are numbered along the chain they refer to.
B1: chAb5 (antibody, human IgG1, kappa, V domains shown)
VH: QVQLQQPGAELVRPGTSVKLSCKASGYTFTSFWMHWVKQRPGQGLEWIGVIDPSDTYTNYNQKFKGKATLTVDTSSSTAYMQLSSLTSEDSAVYYCARGDYSNWFTYWGQGTLVTVSA
VL: DVVMTQTPLSLPVSLGDQASISCRSSQRLVHSNGNTYLHWYLQKPGQSPKLLIYKVSNRFSGVPDRFSGSGSGTDFTLKISRVEAEDLGVYFCSQSTHVPWTFGGGTKLEIKT
notes: chimeric, murine variable and human G1/kappa constant regions
B2: chAb7 (antibody, human IgG1, kappa, V domains shown)
VH: QVQLQQPGAELVMPGTSVKLSCKASGYTFTSYWIHWVKQRPGQGLEWIGEIDPSDSYTNYNQKFKGKATLTVDRSSSTAYMQLSSLTSEDSAVYYCGRSFFTNWFAYWGQGTLVTVSA
VL: B1 VL with R28S, S81N, W101F, G105S
notes: as for B1

How the values were obtained:
[1] = biological target: T1, mouse PRLR ECD-Fc fusion protein (mouse, UniProt Q08501 20-229); experiment: ELISA on ECD
T1 construct: extracellular domain; not shown: Fc region (captured by goat anti-human Fc)
T1 sequence (looked up): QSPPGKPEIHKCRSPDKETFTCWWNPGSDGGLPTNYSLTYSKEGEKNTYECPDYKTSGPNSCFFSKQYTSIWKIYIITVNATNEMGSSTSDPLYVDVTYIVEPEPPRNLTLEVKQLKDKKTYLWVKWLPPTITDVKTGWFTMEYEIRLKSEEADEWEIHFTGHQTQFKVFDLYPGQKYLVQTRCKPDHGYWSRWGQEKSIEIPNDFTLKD
Outline: (§1)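 EC50 values derive from fitted binding curves of antibody serial dilutions (1 h) on captured PRLR. Detection used an HRP-conjugated secondary (1 h), TMB development for 3–5 min, an H₂SO₄ stop and a 450 nm read, with all steps in Tween/PBS pH 7.4 buffer.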

[2] = biological target: T2, rat PRLR ECD-Fc fusion protein (rat, UniProt P05710 20-229); experiment: ELISA on ECD
T2 construct: extracellular domain; not shown: Fc region (captured by goat anti-human Fc)
T2 sequence (looked up): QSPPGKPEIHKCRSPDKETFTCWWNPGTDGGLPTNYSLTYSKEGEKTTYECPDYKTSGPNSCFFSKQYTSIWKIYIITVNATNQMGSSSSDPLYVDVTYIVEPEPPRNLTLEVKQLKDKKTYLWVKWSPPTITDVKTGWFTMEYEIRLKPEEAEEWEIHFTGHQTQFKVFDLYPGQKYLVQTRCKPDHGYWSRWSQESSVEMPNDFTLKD
Outline: as §1

human PRLR on cells = biological target: T3, human PRLR on cells (human, UniProt P16471 25-622); experiment: cell-based or functional assay
T3 sequence: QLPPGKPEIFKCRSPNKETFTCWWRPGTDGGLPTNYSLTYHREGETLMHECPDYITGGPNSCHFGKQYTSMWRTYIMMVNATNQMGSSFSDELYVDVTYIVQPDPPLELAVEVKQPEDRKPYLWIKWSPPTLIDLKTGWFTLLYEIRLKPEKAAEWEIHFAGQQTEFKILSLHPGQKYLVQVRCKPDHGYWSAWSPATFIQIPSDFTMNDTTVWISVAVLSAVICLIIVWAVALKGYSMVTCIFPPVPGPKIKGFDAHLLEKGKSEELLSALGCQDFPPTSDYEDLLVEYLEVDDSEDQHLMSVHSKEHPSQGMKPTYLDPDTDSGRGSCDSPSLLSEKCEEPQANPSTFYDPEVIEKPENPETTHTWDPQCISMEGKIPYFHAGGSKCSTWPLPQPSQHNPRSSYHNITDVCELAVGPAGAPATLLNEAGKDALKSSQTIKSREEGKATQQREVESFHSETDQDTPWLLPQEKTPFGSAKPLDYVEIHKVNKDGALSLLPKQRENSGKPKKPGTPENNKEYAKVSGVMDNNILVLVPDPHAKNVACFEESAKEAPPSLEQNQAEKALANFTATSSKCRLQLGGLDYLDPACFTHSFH

[3] = biological target: T4, mouse PRLR on Baf3-mPRLR cells (mouse, UniProt Q08501 20-608); experiment: cell-based or functional assay
T4 sequence (looked up): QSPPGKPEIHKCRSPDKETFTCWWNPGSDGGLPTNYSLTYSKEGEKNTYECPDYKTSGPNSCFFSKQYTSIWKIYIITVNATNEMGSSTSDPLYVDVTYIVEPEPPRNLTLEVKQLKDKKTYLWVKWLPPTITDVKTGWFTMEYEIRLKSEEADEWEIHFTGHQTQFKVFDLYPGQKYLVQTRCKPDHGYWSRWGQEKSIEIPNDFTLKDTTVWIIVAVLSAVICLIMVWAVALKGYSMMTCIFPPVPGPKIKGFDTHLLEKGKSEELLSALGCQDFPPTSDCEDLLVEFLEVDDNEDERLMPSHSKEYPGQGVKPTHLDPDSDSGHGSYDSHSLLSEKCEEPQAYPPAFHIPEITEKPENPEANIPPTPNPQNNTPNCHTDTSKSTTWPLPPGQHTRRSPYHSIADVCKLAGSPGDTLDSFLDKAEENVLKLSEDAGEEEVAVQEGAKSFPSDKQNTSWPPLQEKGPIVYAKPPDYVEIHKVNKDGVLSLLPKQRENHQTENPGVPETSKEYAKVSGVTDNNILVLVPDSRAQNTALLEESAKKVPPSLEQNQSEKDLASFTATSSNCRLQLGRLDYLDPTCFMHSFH

[4] = biological target: cyno PRLR on Baf3-cyPRLR cells (cyno); experiment: cell-based or functional assay
[5] = biological target: T5, human PRLR (Biacore antigen) (human, UniProt P16471 25-234, limits assumed); experiment: SPR simultaneous binding; PRLR held by surface mAb Ab30
T5 construct: The construct injected over captured antibody is not described (a soluble form is likely); also called huPRLR
T5 sequence: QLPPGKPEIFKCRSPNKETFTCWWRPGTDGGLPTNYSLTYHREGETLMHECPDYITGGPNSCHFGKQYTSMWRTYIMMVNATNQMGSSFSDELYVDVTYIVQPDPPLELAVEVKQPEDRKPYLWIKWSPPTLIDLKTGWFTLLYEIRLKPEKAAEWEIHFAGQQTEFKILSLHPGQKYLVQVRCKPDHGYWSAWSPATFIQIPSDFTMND
Description: (§2) Running buffer was HBS-EP+ (10 mM Hepes, pH7.4, 150 mM NaCl, 3 mM EDTA, 0.05% surfactant). Assay was performed at 12° C. using Biacore T200 and CM5 sensor chips with anti-human IgG (Pierce) amine-coupled in all 4 flow cells to ˜2000 RU.
(§3) Separate test mAbs were captured in flowcells 2, 3 & 4 (flowcell 1 was reference, no test mAb). All 4 flowcells were then blocked by injection with isotype control mAb at 50 ug/ml. All 4 flowcells were then injected with antigen or buffer only (buffer only is for double referencing, done for each mAb pair individually). All 4 flowcells were then injected with 2nd test mAb at 10 ug/ml. All 4 flowcells were then regenerated with glycine, pH1.5.

[6] = biological target: T5, human PRLR (Biacore antigen); experiment: SPR simultaneous binding; PRLR held by surface mAb Ab39
Description: as §2, §3

[7] = biological target: T5, human PRLR (Biacore antigen); experiment: SPR simultaneous binding; PRLR held by surface mAb Ab48
Description: as §2, §3

Binder | EC50 [1] | EC50 [2] | Baf3-hPRLR proliferation IC50 (human PRLR on cells) | Baf3-mPRLR proliferation IC50 [3] | Baf3-cyPRLR proliferation IC50 [4] | solution mAb binding, % of PRLR binding [5] | solution mAb binding, % of PRLR binding [6] | solution mAb binding, % of PRLR binding [7]
B1 | 0.12 nM | 0.147 nM | 0.15 µg/mL | 2.51 µg/mL | 0.42 µg/mL | -1% | -2% | 8%
B2 | 0.184 nM | 0.157 nM | 1.2 µg/mL | 3.6 µg/mL | 1.9 µg/mL | -1% | -2% | 1%

Source: patent US20170022281A1 (AbbVie / Abbott, published 2017)
